Experiments:
[1] = target: interleukin-1 type 1 receptor (UniProt P14778); assay: cell-based or functional assay
[2] = target: human serum albumin (human) (UniProt P02768); assay: sandwich ELISA, HSA-coated plate, control antibody at 1 µM, anti-FITC detection

UniProt P14778, sequence (P14778 18-569 limits assumed): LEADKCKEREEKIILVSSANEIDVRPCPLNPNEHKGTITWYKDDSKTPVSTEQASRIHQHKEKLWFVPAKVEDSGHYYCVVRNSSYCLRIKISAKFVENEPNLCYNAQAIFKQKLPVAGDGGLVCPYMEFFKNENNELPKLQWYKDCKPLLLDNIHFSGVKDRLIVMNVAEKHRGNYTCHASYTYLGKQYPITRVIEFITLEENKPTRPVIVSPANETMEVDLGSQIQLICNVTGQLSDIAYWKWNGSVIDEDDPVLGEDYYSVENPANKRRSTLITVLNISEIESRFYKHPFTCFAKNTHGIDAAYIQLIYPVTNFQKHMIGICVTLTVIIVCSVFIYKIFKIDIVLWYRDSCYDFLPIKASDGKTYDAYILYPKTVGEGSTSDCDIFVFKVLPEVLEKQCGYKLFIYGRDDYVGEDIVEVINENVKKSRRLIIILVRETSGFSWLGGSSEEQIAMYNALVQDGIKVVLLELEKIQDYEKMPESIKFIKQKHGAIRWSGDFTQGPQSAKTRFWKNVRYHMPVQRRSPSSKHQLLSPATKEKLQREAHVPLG

ND50 (neutralizing dose 50) of IL-1-induced IL-8 secretion by MRC-5 cells [1] [nM] | OD600 [2] [OD600] | Substance
0.5 | – | recombinant human IL-1ra (from UniProt P18510 26-177) (ligand)
– | 0.049 | FITC coupled antibody (negative control)
